Measured values: the supplement of paper PMC9170038

Tested on: K4 kissing-loop RNA reporter
Assay: apparent KD of K4 kissing-loop reporter; higher = weaker reporter binding
Details: Eterna round: R107
Procedure: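 RNA-MaP round R107: designed RNA switches with theophylline, tryptophan, arginine or FMN aptamers are transcribed on-chip within common flanks. They are titrated with a labelled K4 kissing-loop RNA reporter in RNA-MaP buffer (100 mM Tris pH 7.5, 80 mM KCl, 4 mM MgCl2), without ligand or with the indicated ligand. Median apparent KD per design.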

[1] = input ligand: theophylline 20 uM
[2] = input ligand: tryptophan 2.4 mM
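Also: bound reporter read as fluorescence of individual clusters on recovered sequencing chips by microscopy, with normalized cluster intensities fitted with a binding model.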

Row | Sequence | apparent KD of K4 kissing-loop reporter (input ligand: FMN 200 uM) [nM] | apparent KD of K4 kissing-loop reporter (input ligand: arginine 13.2 mM) [nM] | apparent KD of K4 kissing-loop reporter (input ligand: none) [nM] | apparent KD of K4 kissing-loop reporter [1] [nM] | apparent KD of K4 kissing-loop reporter [2] [nM]
1 | UUUGUAUAGGGAAGGAGCGUGAAUGAGAAAGAAUAUAGUGAUGUUAUAUAGAAGAAAGAAUCACAGGUAGGUCGCCCGGAGGAGG [SSArgB.G] | 484 | 363 | 371 | 482 | 337
2 | AUUAAUAACUGAGGAUAUCGUUUUACUGUAGUGAUGUUACAGAAAGUUCAAAUUAUAAUUUCUAUUCGAGAAGGCAGAAUAAUUA [JR_SSFMNB_Sub026] | 77.7 | 68.9 | 53.5 | 62.8 | 48.1
3 | UUGUUUUACUGAAGGAGCGGCAAUUGAUACGUAGAUAUAGUGAUGUUAUAUAAGAUAGAGAGCCAGGUAGGUCGCAGAUUUUUUU [ExArgB.V] | 164 | 157 | 144 | 185 | 118
4 | GCCGUAGAUUGAAGGAGCGGGAGAGGGAAAGUGAUGUUUUCUCUAUGACGGCGUCCUCGAUCCCAGGUAGGUCGCAAUCUACGGC | 137 | 80.7 | 99.7 | 80.3 | 105
5 | UGAUAGGACAGAAGGAGCGGAAGUGAUGUUUCCAAAUGGAUAAGGUGUCAAAAGACACCCUUCCAGGUAGGUCGCUGUCCUAUCU [ArgBX 14 #Palindromic #SwitchBubble #StaticStem] | 111 | 112 | 130 | 102 | 101
6 | AAAUUUUAAAGUGAUACCAGACAUCUCAAUUACAUUAAUAAAGCUAAGUGAUGUUUAGCAGUCCCUUGGCAGCACAAUUUAAUUA [JR_SSTheophyB_Sub011] | 272 | 334 | 334 | 447 | 281
7 | UGUGGAGAAUAUGAUACCAGCAGUGAGAGAGAGGAAGUAUAGUGAUGUUAUAUGAGAGAAUGCCCUUGGCAGCAUAUGUAGUAGG [SSTheophylB.G] | 209 | 162 | 207 | 208 | 188
8 | UUUCGUCUCUGAGGAUAUCAGACGAGAGUGAUGUUCUCCCAAAGCCCAGUGAUGUUGGAUGCUAUCUGAGAAGGCAGUGGGCGAA [Same State FMN B GF 12] | 227 | 584 | 554 | 634 | 508
9 | AAUUUACAAUAAUCAUUUAAAGGAUCAGAAGGAGCGUGAAAUAACACAGGUAGGUCGCUGAGCGAGUGAUGUUCGCUAUAUACAA [JR_ExcArginiA_Sub001] | 52.3 | 68.7 | 68.8 | 85.9 | 50.1
10 | GCGCGUGUUAAAGGAUAUAGCAGGUGAUACAAGAAAGUGAGUGAUGUUUAUGUAGAUGAUGAUAUGUUAGAAGGUUAACACGCGC [abcdefghijklmnopqr] | 784 | 635 | 966 | 688 | 629
11 | GGCAUAGUCUCAACGUGUGGUUGGGUUGGGAAGGAUAUUUGAUCGAAAAGAAGGUCCCGCAUUGAGUGAUGUUCAAGGGCUCCAA [theeternabot_exclusion_KL_FMN_A_26] | 226 | 220 | 262 | 213 | 246
12 | UGGGAUGUUAAAGGAUAUAGCAAGUGAUAUAAGAAAGUGAGUGAUGUUUAUGUAGGUGAUGAUAUGUUAGAAGGUUAACAAAACG [abcdefgh] | 296 | 158 | 211 | 185 | 218
13 | ACGUAGUUCUAGGAUACCAGCCAAGGCGCAGGACAAAAGUCCUGCGUCGCCAGUGAUGUUGGCCCUUGGCAGCCUAGAACUACGA [Omei KL Theo B Exc B v12] | 334 | 302 | 304 | 364 | 308
14 | GUGCGCGGUGCGGCCGCCACUCGGAUGCGAGUGAUGUUCGCGGGACGGACGCAAGUCCGUCAUUCGAGGACCGGGCAUGGCUGCA [#2 Same State - Tryptophan B Attempt #6 (HarryS)] | 197 | 196 | 242 | 183 | 137
15 | AAAUCUUUCAGAAGGAGCGUGGAUUAUUCAUAUAUAUUUAUUACGAGUGAUGUUCGUAAUUCACAGGUAGGUCGCUGUUCAAUAA [JR_ExcArginiB_Sub005] | 117 | 116 | 113 | 116 | 102
16 | AAGUCAUAGGCAGGAUAUGCAUUGUAAUAAGGCAAUAUAUACGUAUAGAGUGAUGUUUUGUACCAGGCAGAAGGGCUACAUCAGU [FMN B Excl V10 (+5A/U)] | 674 | 383 | 652 | 491 | 416
17 | AUUAAUUUCAGAGGAUAUCGUUAUUUUUUAUAUUUUAUUCAUUUAUGCAGUGAUGUUGCUAUUAUUCGAGAAGGCUGAUUUAUAA [JR_ExcFMNB_Sub004] | 86.4 | 105 | 44.9 | 100 | 50.9
18 | GCCGCAAGGCUAGCAGCAAUAGGCGCUCGCUAGGAUAUCUGGAAACAGAGAAGGAGCUGGAGUGAUGUUUUACCUCCUUGUUAUU | 1000 | 735 | 950 | 814 | 657
19 | GAUUUAGAGGCGGCCGCCACUAGUGAUGUUAGUGAUGUUUGAUACUGUAUAUAUCGGCGUGUAGAUAGGACCGGGCCUGAUGGAG [drrdmullin] | 259 | 176 | 266 | 210 | 196
20 | UGAUACCAGACGGCCGCCACUCCUGCAAGUCAAAGACUUGCUAAAAGGAUCGUCCAGUGAUGUUGGAGGACCGGGUCUGGUAUCU [TrypBX 19 #SwitchBubble #Palindromic #StaticStem] | 795 | 621 | 744 | 638 | 486
21 | UGUCAUUGGUCUGAUACCAGUCCCUUGGCAGCCAAAUGGAGUGAUGUUCCAAGGAUACCAGACCCUUGGCAGCAGACCGAUGACU [TheoBS 26 #DoubleAptamer #SwitchBubble] | 556 | 397 | 552 | 377 | 499

Row | Sequence | apparent KD of K4 kissing-loop reporter (input ligand: FMN 200 uM) [nM] | apparent KD of K4 kissing-loop reporter (input ligand: arginine 13.2 mM) [nM] | apparent KD of K4 kissing-loop reporter (input ligand: none) [nM] | apparent KD of K4 kissing-loop reporter [1] [nM] | apparent KD of K4 kissing-loop reporter [2] [nM]
22 | UUAGUCUAGAGAAGGAGCGAGUGAUGUUCGCAUGCUAUGAUGAAUUCAUCAUAGUUUAAUCCUCAGGUAGGUCGCUCUAGACAUU [AK7 Exc Arginine B] | 427 | 339 | 418 | 355 | 350
23 | GGCGAAUAAAAUCGCCUAGAGAGAAAGGAUACCAGCACCCGGCGGUGCCCUUGGCAGCCUAGCCCAGUGAUGUUGGGUCCUCUAA [Biaveinbe] | 263 | 121 | 140 | 345 | 206
24 | UACUAUAGUGAUGUUAUAGAUAAACCAGAUACCAGUGUGACAUAACACCCUUGGCAGCUGAUAAGGGAACAUAUGAAAACAUAUG [AstroSSTHeAED5.17] | 146 | 120 | 132 | 120 | 128
25 | GGUGUGCCAGUGAUGUUGGCAUAAACUGAAGGAGCGCGUGAAAACGCAGGUAGGUCGCAGAACCUUGCCAACUAUUUUAUUCACC [Ex Arginine A K4 25] | 181 | 174 | 176 | 236 | 168
26 | UGAUACCAGACGGCCGCCACUGGGACCGGGAGUGAUGUUCCAAAUAAAAGAAGCUCGGCCGCCACUAGGACCGGGUCUGGUAUCU [TrypBX 21 #DoubleAptamer #SwitchBubble] | 395 | 261 | 339 | 367 | 182
27 | GUUACGCAUGGAAGGAGCGCAUGCUCAACAAUAAGCUCAGUGAUGUUGAGCAAAAUUAAAAUGCAGGUAGGUCGCCAUGUGUAAC [Ex Arginine B K4 28] | 542 | 519 | 576 | 528 | 555
28 | AUUUAAUUAACUGAUACCAGACUUUUUGUUUUGUUUAUUACUAGUGAUGUUAGUGUUUCUGUCCCUUGGCAGCAGAAUCUACUUA [JR_ExcTheophyB_Sub019] | 172 | 297 | 191 | 364 | 165
29 | UGGAGUUGACGAAAAGUCAACUCCUGAGAUACCAGUGACGAAAGUCACCCUUGGCAGCUCACUGGCAGUGAUGUUGCACGAUAAA [KL-SSTheo-A1] | 123 | 66.1 | 80 | 181 | 101
30 | AUGGUGGAGGAGUGAUGUUCUUGGAGUAGGUAGGAUAUGAGUGAUGUUAGAAGGAUCGGAGUGAUGUUCCAGGUGGUUGUGUUGU [KL-SSFMN-A2] | 570 | 303 | 765 | 453 | 412
31 | AAGUAGCUCUCGGCCGCCACUCCUCAGUGAUGUUGAGAUAUUAAUUGCCAAUUGGCGUAUUUAAAGAGGACCGGGAGAGCUACAA [AK3 SS Tryptophan B] | 368 | 315 | 378 | 328 | 117
32 | UUUUAAAUGUCUGAUACCAGAGAAAAUAUAUGUAGUGAUGUUAUAUACAAAUUGAAUAAGCUCCCUUGGCAGCAGUAUUAAUUUU [AstrosExc-TheB#11] | 493 | 643 | 713 | 662 | 493
33 | AAAAGCCUACAGGAUACCAGCCGAAUACUAAAAGGCUGGAGUGAUGUUCCAGCUUGCCGCGGCCCUUGGCAGCCUAGCUGGGUGA [Soatriti] | 248 | 258 | 507 | 341 | 286
34 | GGGUCAGUCUGAAGGAGCGGCCAGACAGAGCAGUGAUGUUGCUCCUCCGGAAACGGUGUCGGCCAGGUAGGUCGCAGAUUGGCUC [Dienralais mod v1] | 153 | 122 | 137 | 126 | 124
35 | GGGAAGAAGGCGGCCGCCACUGCAGAAGAGACAGAGAGGGAAGAAGAGGAGUGAUGUUCCAAGAACAGGACCGGGCCAAGAAGGG [whbob_SS_Tryp_B_t29] | 598 | 137 | 119 | 284 | 92.9
36 | AAAAUAAAUCAGUGAUGUUGGUAUCCGGAUACCAGCGAUAAUCAUCGCCCUUGGCAGCCGUGGACGUACAAAAUAAGUACGUCCU [MatMod 16 - Jieux - Same State - Theophylline A] | 137 | 104 | 168 | 171 | 183
37 | AAAGCAUUGAGAAGGAGCGUGACGUGGAGUGAUGUUCCAUUGUAGUAAUAAUUACUACUAUCACAGGUAGGUCGCUCAUUGCUAA [JR_Nu_SSArginiB_Sub024] | 183 | 159 | 181 | 161 | 180
38 | AGUGCACUGUCAGGAUAUGUACAGUGAUGUUGUGUAUGUCAGCAAGUCAAAGACUUGCUCUUCUGUGCAGAAGGGACUGUGUACA [Omei KL FMN B Exc A v5] | 755 | 464 | 628 | 506 | 554
39 | ACGUCUUGUAAACUCGUGGUUUCGAUCGAUACCAGUAGCGAGAGUUACCCUUGGCAGCGACAUGAGUGAUGUUCAUGUACGAAGA [KL-XTheoA3] | 98.6 | 87.9 | 92.9 | 89 | 90.7
40 | AACCCAUGACUGGAUACCAGACUAUACAUGCUGAGUGAUGUUUAGCGGAGUCAUCUCUCGGUCCCUUGGCAGCCAACGUCACGCG [theeternabot_sameState_KL_Theo_B_33] | 614 | 334 | 646 | 403 | 373
41 | UGUCAUUGGUCUGAUACCAGUACCCUUGGCAGCCAAGGAGUGAUGUUCCAAGGAUACCAGUACCCUUGGCAGCAGACCGAUGACU [TheoBS 25 #DoubleAptamer #SwitchBubble] | 884 | 802 | 758 | 194 | 964
42 | AAGUGUCAUUAGACACAGACUACAAUACACUAGGAUAUGCUGAUAAGCAGAAGGAGUGAUGUUCCUUUCAAGUAGUCAAUUAAAU [FmnAX 21 Mat Inspired #SwitchBubble #StaticStem #K4Late] | 237 | 148 | 143 | 178 | 140
